Experimental findings from patent publication US20220073643A1 (NANJING GENSCRIPT BIOTECH, published 2022) are described below.

B1: 231H4G11 (antibody, V domains shown)
VH: QAYLQQSGAELVRSGASVKMSCKASGYTFTSHNIHWVKQTPGQGLEWIGYISPGNGYTNYNQKFRGKATLTADTSSSTAYMQISSLTSEDSAVYFCTRDYYGNSFAYWGQGTLVTVSA
VL: DIVMTQSPSSLTEKAGERVSMSCKSSQSLFNSGSQKNYLTWYQQKPGQPPKLLIYWASTRESGVPDRFSGSGSGTDFTLTISSVQAEDLAVYYCQNNYWFPFTFGAGTKLELK
B2: 234C9G5 (antibody, V domains shown)
VH: QAYLQQSGAELVRSGASVKMSCKASGYAFTSHNMHWVKQTPGQGLEWIGYISPGNGYTNYNQKFRGKATLTADTSSSTAYMQIGSLTSEDSAVYFCTRDYYGNSFAYWGQGTLVTVSA
VL: DIVMTQSPSSLTEKAGERVSMSCKSSQSLFNSGNQKNYLTWYQQKPGQPPKLLIYWASTRESGVPDRFTGSGSGTDFTLTISSVQAEDLAVYYCQNNYWFPFTFGAGTKLELK
B3: 233D5E5 (antibody, V domains shown)
VH: QAYLQQSGAELVRSGASVKMSCKASGYTFTSHNMHWVKQTPRQGLEWIGYIYPGNGDTNYNQKFKGKATLTADTSSSTAYMQISSLTSEDSAVYFCTRDYYGNSFAYWGQGTLVTVSA
VL: DIVMTQSPSSLTEKAGERVSMSCKSSQSLFNSGNQKNYLTWYQQKPGQPPKLLIYWASTRESGVPDRFTGSGSGTDFTLTISSVQAEDLAVYYCQNAYWYPFTFGAGTKLELK
B4: 235A10C9 (antibody, V domains shown)
VH: QAYLQQSGAELVRSGASVKMSCKASGYTFASHNMHWVKQTPGQGLEWIGYIYPGNSGTKYNQKFTGKATLTADTSSSTAYMQITSLTSEDSAVYFCARDYYGNSFAYWGQGTLVTVSA
VL: DIVMTQSPSSLTEKAGEKVSMRCKSSQSLLNSGNQKNYLTWYQQKPGQPPKLLIYWASTRESGVPDRFTGSGSGTDFTLTISSVQADDLAVYYCQNDYMFPFTFGAGTKLELK
B5: 232D7C8 (antibody, V domains shown)
VH: QAYLQQSGAELVRSGASVKMSCKASGYTFTSHNMHWVKQTPGQGLEWIGYIYPGNGGTNYNQKFKGKATLTADTSSSTAYMQISSLTSEDSAVYFCARDYFGNSFAYWGQGTLVTVSA
VL: DILMTQSPSSLTATAGEKVSMSCKSSQSLFNSGNQRNYLTWYQQRPGQPPKLLIYWASTRESGVPDRFTGSGSGTDFTLTISSVQAEDLAVYYCQNDYRYPFTFGAGTKLELK
B6: 234E1F12 (antibody, V domains shown)
VH: QAYLQQSGAELVRSGASVKMSCKASGYTFTSHNMHWVKQTPRQGLEWIGYIYPGNGDTNYNQKFKGKATLTADTSSSTAYMQISSLTSEDSAVYFCTRDYYGNSFAYWGQGTLVTVSA
VL: DIVMTQSPSSLTEKAGERVSMSCKSSQSLFNSGNQKNYLTWYQQKPGQPPKLLIYWASTRESGVPDRFTGSGSGTDFTLTISSVQAEDLAVYYCQNAYWYPFTFGAGTKLELK
B7: 232C5E3 (antibody, V domains shown)
VH: QAYLQQSGAELVRSGASVKMSCKASGYTFTSHNIHWIKQTPGKGLEWIGYIYPGNGGTNYNQKFKAKATLTADTSSSTAYMQISSLTSEDSAVYFCARDYYGNSFAYWGQGTLVTVSA
VL: DIMMTQSPSSLTETAGEKVSMSCKSSQSLLNSGNQKNYLTWYQQKPGQPPKLLIYWASTRESGVPDRFSGSGSGTDFTLTISSVQAEDLAVYYCQNGYRFPFTFGAGTKLELK
B8: 217D9G2 (antibody, V domains shown)
VH: QAYLQQSGAELVRSGASVKMSCKASGFTFTSYNIHWVKQTPGQGLEWIGYISPGNGGSNYNLNFKDKATLTAATSSTTAYMQISSLTSEDSAVYFCATGRGFAYWGQGTLVTVSA
VL: DIVMTQSPSSLTVTPGEKVTMSCRSSQSLFNSGNQKNYLIWYQQKPGQPPKLLIYRASTRDSGVPDRFTGSGSGTDFTLTISNVQAEDLAVYYCQNDYSYPLTFGAGTKLELK
B9: 222B6G5 (antibody, V domains shown)
VH: QTYLQQSGAELVRSGASVKMSCKASGYTFTSYNIHWVKQTPGQGLEWIGYISPGNGGTYYNLKFKDKATLTTATSSSTAYMQISSLTSEDSAVYFCATGRGFAYWGQGTLVTVSA
VL: DIVMTQSPSSLTVTPGEKVTMSCKSSQSLFNSGNQKNYLIWYQQKPGQPPKLLIYRASTRDSGVPDRFTGSGSGTDFTLTISNVQAEDLAVYYCQNDYSYPLTFGAGTKLELK
B10: 226A4B5 (antibody, V domains shown)
VH: QAYLQQSGAELVRSGASVRMSCKASGFTFTSYNIHWVKQTPGQGLEWIGYIYPGSGGSNYNQKFMGKATLTADTSSSTVYMQISSLTSEDSAVYFCATGRGFAYWGQGTLVTVSA
VL: DIVMTQSPSSLTVTAGEKVTMSCKSSQSLFNSGNQKNYLTWYQQKPGQPPKLLIYRASTRESGVPDRFTGSGSGTDFTLTISSVQAEDLAVYYCQNDYSYPLTFGTGTKLELK
B11: 185F2G12 (antibody, V domains shown)
VH: QAYLQQSGAELVRSGASVKMSCKASGYTFTSYNMHWVRQTPGQGLEWIGYIYPGNGGTNYSQKFKGKASLTADTSSTTAYMQISSLTSEDSAVYFCATGRGFAYWGQGTLVTVSA
VL: DIVMTQSPSSLTVTAGEKVTLSCKSSQSLFNTGNQKNYLTWYQQKPGQPPKLLIFRASTRESGVPDRFTGSGFGTDFTLTISSVQAEDLAVYYCQNDFSYPLTFGAGTKLELK
B12: 234B9D4 (antibody, V domains shown)
VH: EIQLQQSGPDLMKPGSSVKISCTASGYSFTSYYIHWVKQSHGKTLEWIGYIDPFNGGTRYNQKFEGKAALTVDKSSTTAYMHLTSLTSDDSAVYYCASLRFFTYWGQGTLVTVSA
VL: DIVMTQSPSSLTVTAGEKVTMTCKSSQSLLNSGNQENYLTWYQQKPGQPPKLLISRASTRQSGVPDRFTGSGSGTDFTLTISSVQAEDLAVYYCQNDYSYPLTFGAGTKLELK
B13: 219F9B8 (antibody, V domains shown)
VH: QAYLQQSGAELVRSGASVRMSCKASGYTFTSYNMHWVKQTPGQGLEWIGYIYPGNGHTNYNQKFKGKATLTADTSSSTAYMQISSLTSEDSAVYFCATGRGFAYWGQGTLVTVSA
VL: DIVMTQSPSSLTVTAGEKVTMSCKSSQSLLNSGNQKNYLTWYQQKPGQPPKLLIYRASTRESGVPDRFTGSGSGTDFTLTISSVQAEDLAVYYCQNDYSYPLTFGVGTKLELK
B14: 237D2A4 (antibody, V domains shown)
VH: QVQLKESGPGLVAPSQSLSITCTVSGFSLTSYGVSWVRQPPGKGLEWLGVIWGDGSTNYHSTLISRLRISKDKSKSQVFLKLNSLQTDDTATYYCAKAGRGNALDYWGQGTSVTVSS
VL: DIVMTQSPSSLTVTAGEKVTMSCKSSQSLLNSGNQKNYLTWYQQKPGQPPKLLIYWASTRESGVPDRFTGSGSGTDFTLTISSVQAEDLAVYYCQNDYSFPLTFGAGTKLELK
B15: 232F1E4 (antibody, V domains shown)
VH: QVQLKESGPGLVAPSQSLSITCTVSGFALTTYGVSWVRQPPGKGLEWLGVIWGDGSTHYHSALISRLSIRKDNSKSQVFLKLNSLQTDDTATYYCAKPGRGNAMDYWGQGTSVTVSS
VL: DIVMSQSPSSLTVTAGEKVTMSCKSSQSLLNSGNQKNYLTWYQQKPGQSPKLLIYWASTRESGVPDRFTGSGSGTDFTLTISSMQAEDLAVYYCQNDYIYPLTFGAGTMLELK
B16: 186F7E10 (antibody, V domains shown)
VH: EVMLVESGGGLVKPGGSLKLSCAASRFTLNSYAMSWIRQTPEKKLEWVATITSGVSHTYYFDSVKGRFTISRDTAKNTLNLQMNSLRSEDTAVYYCARLYYGNSLDYWGQGTSVTVSS
VL: DIVMTQSPSSLTVTAGEKVTVSCKSSQSLLNSGNQKNYLTWYQQKPGQPPKLLIYWASTRESGVPDRFTGSGSGTDFTLTISSVQSEDLAVYYCQNNYIYPLTFGAGTTLELK
B17: 231C11E9 (antibody, V domains shown)
VH: EVMLVESGGGLVKPGGSLKLSCAASGFTFNNYVMCWVRQTPEKRLEWVATISSGNFYTYYPDSVKGRFTISRDNAKNTLYLQMSSLRSEDTAIYYCASLGRGNALDNWGQGTSVTVSS
VL: DIVMTQSPASLTVTAKEKVTMSCRSSQSLLNSGNQKNYLTWYQQKPGQPPKLLIYWASTRESGVPDRFTGSGSGTDFTLTISSVQAEDLAVYYCQNDYSYPFTFGSGTKLEIK
B18: 239H12G9 (antibody, V domains shown)
VH: QAYLQQSGAELVRSGASVKMSCKASGYTFTSHNIHWVKQTPGQGLEWIGYIYPGNGAPNYNQKFRGKATLTADTSSSTAYMQISSLTSEDSAVYFCARDYYGNSFVYWGQGTLVTVSA
VL: DIVMTQSPSSLTEKAGEKVSMSCKSSQSLLNSGNQKNYLTWYQQKPGQPPKLLIYWASTRESGVPDRFTGSGSGTDFTLTISSVQAEDLAVYYCQNDYRYPFTFGAGTKLELK
B19: 234A10F7 (antibody, V domains shown)
VH: QVQLQQSGAELVKPGASVKLSCKASGYTFTSFGINWLRQRPEQGLEWIGWIFPGDGNSKYNENFKGKATLTTDKSSSTAYMQLTRLTSEDSAVYFCARFYYGNSFAYWGQGTLVTVSA
VL: DIVMTQSPSSLTVTTGQKVTMSCKSSQSLLNSGNQKNYLTWYQQKPGQPPKLLIYWAATRESGVPDRFTGSGSGTDFTLTISSVQAEDLAVYYCQNDYFYPFTFGAGTKLELK

Values joined by “and” are separate entries in the source; they are usually repeats but may differ in a detail not shown here. Identical values can stand only once.

This assay deals with human Claudin18.2 (human). In words: cell-based or functional assay.
For the molecule B1, the “CDC % Relative activity” value came to 88% and the “CDC EC50” value was 1.48 µg/mL.

Regarding B2, the “CDC % Relative activity” value is 175% and the “CDC EC50” value worked out at 0.794 µg/mL.

Consider B3, for which the “CDC % Relative activity” value came to 87.3% and the “CDC EC50” value came out at 1.49 µg/mL.

In the case of B4, the “CDC % Relative activity” value is 137% and the “CDC EC50” value was 1.01 µg/mL.

Take B5: the “CDC % Relative activity” value was found to be 88.9% and the “CDC EC50” value turned out to be 1.46 µg/mL.

As to B6, the “CDC % Relative activity” value stood at 126% and the “CDC EC50” value stood at 1.1 µg/mL.

Take B7: the “CDC % Relative activity” value is 226% and the “CDC EC50” value came out at 0.575 µg/mL.

Regarding B8, the “CDC % Relative activity” value was 707% and the “CDC EC50” value came out at 0.271 µg/mL.

On to B9, for which the “CDC EC50” value is 0.278 µg/mL and 0.259 µg/mL.

As to B10, the “CDC % Relative activity” value came out at 73% and the “CDC EC50” value is 1.78 µg/mL.

For the molecule B11, the “CDC % Relative activity” value amounted to 543% and the “CDC EC50” value turned out to be 0.291 µg/mL.

With B12, the “CDC % Relative activity” value is 485% and the “CDC EC50” value stood at 0.287 µg/mL.

With B13, the “CDC % Relative activity” value worked out at 603% and the “CDC EC50” value amounted to 0.318 µg/mL.

In the case of B14, the “CDC % Relative activity” value is 629% and the “CDC EC50” value amounted to 0.221 µg/mL.

With B15, the “CDC % Relative activity” value amounted to 74.9% and the “CDC EC50” value was 1.74 µg/mL.

Take B16: the “CDC % Relative activity” value turned out to be 124% and the “CDC EC50” value was found to be 1.27 µg/mL.

In the case of B17, the “CDC % Relative activity” value came to 83.7% and the “CDC EC50” value stood at 1.55 µg/mL.

For the molecule B18, the “CDC % Relative activity” value was found to be 102% and the “CDC EC50” value turned out to be 1.36 µg/mL.

Take B19: the “CDC % Relative activity” value came out at 62% and the “CDC EC50” value was 2.1 µg/mL.
